# US20200181238A1
# Experiments:
# [1] = target: ICAM-1 on tumor cells (HeLa, 8505C) (human) (UniProt P05362); assay: cell-based or functional assay
# [2] = target: ICAM-1 on tumor cells (HeLa, 8505C) (human) (UniProt P05362); assay: flow cytometry, HeLa cells, R6.5 antibody at 10 µg/ml; ICAM-1 negative 293T control reads 0%
# [3] = target: ICAM-1 on tumor cells (HeLa, 8505C) (human) (UniProt P05362); assay: flow cytometry, 8505C cells, R6.5 antibody at 10 µg/ml; ICAM-1 negative 293T control reads 0%
# [4] = target: ICAM-1 on tumor cells (HeLa, 8505C) (human) (UniProt P05362); assay: estimated from titrated R65 antibody binding to HeLa cells
# ICAM-1 on tumor cells (HeLa, 8505C) (human), sequence (P05362 28-532): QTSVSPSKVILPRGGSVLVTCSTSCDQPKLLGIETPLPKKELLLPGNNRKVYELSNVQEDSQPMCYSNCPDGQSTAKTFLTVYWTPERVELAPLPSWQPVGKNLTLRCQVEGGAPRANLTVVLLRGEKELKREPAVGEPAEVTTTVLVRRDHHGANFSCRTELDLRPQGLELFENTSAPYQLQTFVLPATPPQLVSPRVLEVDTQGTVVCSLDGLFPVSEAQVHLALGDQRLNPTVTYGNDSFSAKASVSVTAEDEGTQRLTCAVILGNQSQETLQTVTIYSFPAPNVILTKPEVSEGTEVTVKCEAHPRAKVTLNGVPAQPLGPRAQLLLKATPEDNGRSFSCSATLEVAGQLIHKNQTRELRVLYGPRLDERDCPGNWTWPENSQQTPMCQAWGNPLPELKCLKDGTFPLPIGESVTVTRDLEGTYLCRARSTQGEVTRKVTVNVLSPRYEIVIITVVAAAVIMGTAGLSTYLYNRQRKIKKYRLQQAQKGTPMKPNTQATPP
Molecule,"percent of 8505C cells viable after 24 hours with CAR T cells, E:T 2.5:1 (bioluminescence, normalized to non-transduced T cells) [1]","percent of HeLa cells viable after 24 hours with CAR T cells, E:T 2.5:1 (bioluminescence, normalized to non-transduced T cells) [1]",% ICAM-1 positive cells [2],% ICAM-1 positive cells [3],Kd [4]
R6.5-CAR (third generation anti-ICAM-1 chimeric antigen receptor on primary human T cells) (from UniProt P10747 153-220; Q07011 214-255; P20963 52-164) (scFv),52%,17%,–,–,–
"murine monoclonal anti-human ICAM-1 antibody R6.5 (antibody, from another filing, V domains shown) VH: QVQLQQSGPELVRPGVSVKISCKGSGYTFIDYAIHWVKESHAKSLEWIGVISAYSGDTNYNQKFKGKATMTVDKSSNTAYLELARLTSEDSAIYYCARGGWLLLSFDYWGQGTTLTVSS VL: DVVMTQSPLSLPVSLGDQASISCRSSQSLVHSNGNNYLHWYLQKSGQAPKLLIYKVSNRFSGVPDRFSGSGSGTDFTLKISRVEAEDLGVYFCSQSTHVPLTFGGGTKLEIKR",–,–,100%,97%,10 nM
